Test results from the nanobody polyreactivity screen of Harvey et al. (2022).

Assay: yeast display, Sf9 membrane polyspecificity reagent, FACS + sequencing; frameworks hold sequencing errors
Summary of the method: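 Synthetic nanobody libraries on Saccharomyces cerevisiae BJ5465 were galactose-induced for 36–48 hours, stained 1 hour at 4 °C with 10% biotinylated, detergent-solubilized Sf9 membrane reagent and enriched on streptavidin microbeads. FACS then separated cells into low and high (top ~1%) gates by anti-HA (expression) and streptavidin (reagent binding) fluorescence. Genes were colony-PCR amplified, MiSeq 2 × 250 sequenced and CDR-length filtered. A clone's polyreactivity label is that of its gate of origin.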

QVQLEESRGGLVQAGGSLRLSCAASGRIFPVYVMGWDRQAPGKERELVAAINYNGGSTTDADSVKGRFTISRDNAKNTVDLQMNSLKPEDTAVYYCAKVGVLGYYTYYYWGQGIQVTVSS
polyreactivity (PSR sort gate): low polyreactivity

QVQLEESVGGLVQAGGSLRLICAASGSIFSSYAMGWYRQAPGKERELVATISKRGGITSYADSVKGRFTISRDNAKNTVYLQMNSLKPEDTAVYYCAADSWFSYRGPLYYWGQGTQVTVSS
polyreactivity (PSR sort gate): high polyreactivity

QVQLEESVGGLVQAGGSLRLICAASGSTFVYNAMGWYRPAPGTERELVAAISSGGSTDYADSVKGRFTISRDNAKNTVYLQMNSLKPEDTAVYYCAARPDYRYHYWGQGTQVTVSS
polyreactivity (PSR sort gate): high polyreactivity

QVQLEESVGGLVQAGGSLRLSCAASGFIFPYYTMGWYRQAPGKERELVAAISRTAVGTYYADSVKGRFTISRDNAKNTVYLQMNSLKPEDTAVYYCAVVTQRKYDYWGQGTQVTVSS
polyreactivity (PSR sort gate): high polyreactivity

QVQLEESVGGLVQAGGSLRLSCAASGRIFTPYAMGWYRQAPGKERELVATISRGTSTSYADSVKGRFTISRDNAKNTVYLQMNSLKPEDTAVYYCAALGPRTTFRYTSYYYWGQGTQVTVSS
polyreactivity (PSR sort gate): high polyreactivity

QVQLEETGGGLVQAGGSLRISCAASGFIFSYNAMGWYRQAPGKERELVATITRRGGGTTYADSVKGRFTISRDNAKNTVYLQMNSLIPEDTAVYYCNRDVNSKLSFGSVGYDYWGQGTQVTVSS
polyreactivity (PSR sort gate): low polyreactivity

QVQLEETGGGLVQAGGSLRLSCAASGFTIYRYALGSYRQAPGKERELVAAISSRGGTTYYADSVKGRFTISRDNAKNTVYLQMNSLKPEDTAVYYCNAGYYLTLDYWGQGTQVTVSS
polyreactivity (PSR sort gate): high polyreactivity

QVQLEETGGGLVQAGGSLRLSCAASGRIFWWYAMGWYRQAPGKERELVAVIDDSGGITYYADSVKGRFTISRDNAKNTVYLQMNSLKPEDTAVYYCARNVNAQKVLAGFDYWGQGTQVTVSS
polyreactivity (PSR sort gate): low polyreactivity

QVQLGDSGGGLLQAGGSLRLSCAASGRTFYYNALGWYRQAPGKERELVARIRSGGSTNYADSVKGRFTISRDNAKNTVYFQMNSRKPEDTAVYYCNALGAKGYVKGFDYWGLGTQVTVSS
polyreactivity (PSR sort gate): low polyreactivity

QVQLGESGGGIVQAGGSLRLSCAASGRTFPYNVMGWYRQAPGKERELVAGITGSGDSTFYADSVKGRFTISRDHAKNTVYLQMNSLKPEDTAVYYCAARYRTLNDGYIRNYWGQGTQVTVSS
polyreactivity (PSR sort gate): low polyreactivity

QVQLGESGGGLCQAGGSLRLSCAASGSIIAGYTMGWYRPAPGNARELVAGIRRGGSTNYADSVKGRVTISRDNAKNTVYLQMNSLKPEDTAVYYCNAQLTRSYVLRTFDYWGQGTQVTVSS
polyreactivity (PSR sort gate): high polyreactivity

QVQLGESGGGLLPAGGSLGLSCAASGSTFGYYAMGWDRQAPGKERELVAAINSGDSTSYADSVKGRFTISRDNAKTTLYLQMNSMKPEDTAVYYCAVRPRRHQYGYWGQGTQVTLSS
polyreactivity (PSR sort gate): low polyreactivity

QVQLGESGGGLLQAGGSLRLSCAASGFTFYGYAMGWYRQAPGKERELVAAISRRGGSTYYADSVKGRFTISRDNAKYTVYVQMNSLKPEDTAVYYCITLFSHLRDRYDYWGQGTEVTVSS
polyreactivity (PSR sort gate): high polyreactivity

QVQLGESGGGLVKAGGSLRLSCAASGRIFFDYGMGGYRQAPGKERELVADITRGGGSTYYADSVKGRFTISRDNAKNTVYLQINSQKPEDTAVYYCAKESSCYYPQRFDYWGQVTQVTVSS
polyreactivity (PSR sort gate): low polyreactivity

QVQLGESGGGLVQAGGILRLSCAASGRIFPQYAMGWYRQAPGKERELVAGITSVGSTYYADSVKGRFTISRDNAKNTVYLQMNSLKPEDTAVYFCAAVPSRYVRANRRTYRYYYWGKGTQVTVSS
polyreactivity (PSR sort gate): high polyreactivity

QVQLGESGGGLVQAGGSLRLICAASGFIFTTYVMGWYRQAPGKERELVAVISRSGGRTYYADSVKGRFTISRDNEKYTVYLLMNSLKPEDTAVYYCNVDIPVLSHIEYYYWGQGTQVTVSS
polyreactivity (PSR sort gate): low polyreactivity

QVQLGESGGGLVQAGGSLRLICAASGLTFSYNDMGWYRQAPGKERELVAGITSNGGSTYYADSVKGRFTITRDNAKNTVYLQMNSLNPEDTAVYYCAAEQYVGVKPFLSDSWGQGNQVTVSS
polyreactivity (PSR sort gate): low polyreactivity
